B1: UPF2 MIF4G-3 domain (residues 761–1054) (domain or fragment, human, UniProt Q9HAU5 761-1054, looked up)
chain: EKTVKKKRPPLQEYVRKLLYKDLSKVTTEKVLRQMRKLPWQDQEVKDYVICCMINIWNVKYNSIHCVANLLAGLVLYQEDVGIHVVDGVLEDIRLGMEVNQPKFNQRRISSAKFLGELYNYRMVESAVIFRTLYSFTSFGVNPDGSPSSLDPPEHLFRIRLVCTILDTCGQYFDRGSSKRKLDCFLVYFQRYVWWKKSLEVWTKDHPFPIDIDYMISDTLELLRPKIKLCNSLEESIRQVQDLEREFLIKLGLVNDKDSKDSMTEGENLEEDEEEEEGGAETEEQSGNESEVNE
notes: UPF2, human, Q9HAU5, MIF4G-3 construct, residues 761-1054; Limits are printed for the construct 'which we used as substrate in our assays'; also called MIF4G domain 3

What was measured:
[1] = molecular target: T1, SMG1 (full-length recombinant, wild-type, N-terminal SBP-tag) (UniProt Q96Q15 1-3661); test: SPR; SMG1 immobilised via its N-terminal SBP-tag on a streptavidin (SA) chip, ~2000 RU, BIAcore 3000; analyte titrated at 25 µl/min; apparent KD from RUmax against concentration, one binding site model; conditions: both partners purified
T1 construct: SMG1, serine/threonine-protein kinase of the PIKK family, about 415 kDa, full-length, wild type; also called SMG1 kinase; wild-type SMG1; source: recombinant, purified; not shown: SBP, N-terminal, kept

[2] = molecular target: B1; test: SPR; competition: SMG1 immobilised; MIF4G-3 at constant 50 nM injected with 0, 50, 250, 500 nM UPF3b RRM domain; conditions: both partners purified

T1 sequence (Q96Q15 whole entry): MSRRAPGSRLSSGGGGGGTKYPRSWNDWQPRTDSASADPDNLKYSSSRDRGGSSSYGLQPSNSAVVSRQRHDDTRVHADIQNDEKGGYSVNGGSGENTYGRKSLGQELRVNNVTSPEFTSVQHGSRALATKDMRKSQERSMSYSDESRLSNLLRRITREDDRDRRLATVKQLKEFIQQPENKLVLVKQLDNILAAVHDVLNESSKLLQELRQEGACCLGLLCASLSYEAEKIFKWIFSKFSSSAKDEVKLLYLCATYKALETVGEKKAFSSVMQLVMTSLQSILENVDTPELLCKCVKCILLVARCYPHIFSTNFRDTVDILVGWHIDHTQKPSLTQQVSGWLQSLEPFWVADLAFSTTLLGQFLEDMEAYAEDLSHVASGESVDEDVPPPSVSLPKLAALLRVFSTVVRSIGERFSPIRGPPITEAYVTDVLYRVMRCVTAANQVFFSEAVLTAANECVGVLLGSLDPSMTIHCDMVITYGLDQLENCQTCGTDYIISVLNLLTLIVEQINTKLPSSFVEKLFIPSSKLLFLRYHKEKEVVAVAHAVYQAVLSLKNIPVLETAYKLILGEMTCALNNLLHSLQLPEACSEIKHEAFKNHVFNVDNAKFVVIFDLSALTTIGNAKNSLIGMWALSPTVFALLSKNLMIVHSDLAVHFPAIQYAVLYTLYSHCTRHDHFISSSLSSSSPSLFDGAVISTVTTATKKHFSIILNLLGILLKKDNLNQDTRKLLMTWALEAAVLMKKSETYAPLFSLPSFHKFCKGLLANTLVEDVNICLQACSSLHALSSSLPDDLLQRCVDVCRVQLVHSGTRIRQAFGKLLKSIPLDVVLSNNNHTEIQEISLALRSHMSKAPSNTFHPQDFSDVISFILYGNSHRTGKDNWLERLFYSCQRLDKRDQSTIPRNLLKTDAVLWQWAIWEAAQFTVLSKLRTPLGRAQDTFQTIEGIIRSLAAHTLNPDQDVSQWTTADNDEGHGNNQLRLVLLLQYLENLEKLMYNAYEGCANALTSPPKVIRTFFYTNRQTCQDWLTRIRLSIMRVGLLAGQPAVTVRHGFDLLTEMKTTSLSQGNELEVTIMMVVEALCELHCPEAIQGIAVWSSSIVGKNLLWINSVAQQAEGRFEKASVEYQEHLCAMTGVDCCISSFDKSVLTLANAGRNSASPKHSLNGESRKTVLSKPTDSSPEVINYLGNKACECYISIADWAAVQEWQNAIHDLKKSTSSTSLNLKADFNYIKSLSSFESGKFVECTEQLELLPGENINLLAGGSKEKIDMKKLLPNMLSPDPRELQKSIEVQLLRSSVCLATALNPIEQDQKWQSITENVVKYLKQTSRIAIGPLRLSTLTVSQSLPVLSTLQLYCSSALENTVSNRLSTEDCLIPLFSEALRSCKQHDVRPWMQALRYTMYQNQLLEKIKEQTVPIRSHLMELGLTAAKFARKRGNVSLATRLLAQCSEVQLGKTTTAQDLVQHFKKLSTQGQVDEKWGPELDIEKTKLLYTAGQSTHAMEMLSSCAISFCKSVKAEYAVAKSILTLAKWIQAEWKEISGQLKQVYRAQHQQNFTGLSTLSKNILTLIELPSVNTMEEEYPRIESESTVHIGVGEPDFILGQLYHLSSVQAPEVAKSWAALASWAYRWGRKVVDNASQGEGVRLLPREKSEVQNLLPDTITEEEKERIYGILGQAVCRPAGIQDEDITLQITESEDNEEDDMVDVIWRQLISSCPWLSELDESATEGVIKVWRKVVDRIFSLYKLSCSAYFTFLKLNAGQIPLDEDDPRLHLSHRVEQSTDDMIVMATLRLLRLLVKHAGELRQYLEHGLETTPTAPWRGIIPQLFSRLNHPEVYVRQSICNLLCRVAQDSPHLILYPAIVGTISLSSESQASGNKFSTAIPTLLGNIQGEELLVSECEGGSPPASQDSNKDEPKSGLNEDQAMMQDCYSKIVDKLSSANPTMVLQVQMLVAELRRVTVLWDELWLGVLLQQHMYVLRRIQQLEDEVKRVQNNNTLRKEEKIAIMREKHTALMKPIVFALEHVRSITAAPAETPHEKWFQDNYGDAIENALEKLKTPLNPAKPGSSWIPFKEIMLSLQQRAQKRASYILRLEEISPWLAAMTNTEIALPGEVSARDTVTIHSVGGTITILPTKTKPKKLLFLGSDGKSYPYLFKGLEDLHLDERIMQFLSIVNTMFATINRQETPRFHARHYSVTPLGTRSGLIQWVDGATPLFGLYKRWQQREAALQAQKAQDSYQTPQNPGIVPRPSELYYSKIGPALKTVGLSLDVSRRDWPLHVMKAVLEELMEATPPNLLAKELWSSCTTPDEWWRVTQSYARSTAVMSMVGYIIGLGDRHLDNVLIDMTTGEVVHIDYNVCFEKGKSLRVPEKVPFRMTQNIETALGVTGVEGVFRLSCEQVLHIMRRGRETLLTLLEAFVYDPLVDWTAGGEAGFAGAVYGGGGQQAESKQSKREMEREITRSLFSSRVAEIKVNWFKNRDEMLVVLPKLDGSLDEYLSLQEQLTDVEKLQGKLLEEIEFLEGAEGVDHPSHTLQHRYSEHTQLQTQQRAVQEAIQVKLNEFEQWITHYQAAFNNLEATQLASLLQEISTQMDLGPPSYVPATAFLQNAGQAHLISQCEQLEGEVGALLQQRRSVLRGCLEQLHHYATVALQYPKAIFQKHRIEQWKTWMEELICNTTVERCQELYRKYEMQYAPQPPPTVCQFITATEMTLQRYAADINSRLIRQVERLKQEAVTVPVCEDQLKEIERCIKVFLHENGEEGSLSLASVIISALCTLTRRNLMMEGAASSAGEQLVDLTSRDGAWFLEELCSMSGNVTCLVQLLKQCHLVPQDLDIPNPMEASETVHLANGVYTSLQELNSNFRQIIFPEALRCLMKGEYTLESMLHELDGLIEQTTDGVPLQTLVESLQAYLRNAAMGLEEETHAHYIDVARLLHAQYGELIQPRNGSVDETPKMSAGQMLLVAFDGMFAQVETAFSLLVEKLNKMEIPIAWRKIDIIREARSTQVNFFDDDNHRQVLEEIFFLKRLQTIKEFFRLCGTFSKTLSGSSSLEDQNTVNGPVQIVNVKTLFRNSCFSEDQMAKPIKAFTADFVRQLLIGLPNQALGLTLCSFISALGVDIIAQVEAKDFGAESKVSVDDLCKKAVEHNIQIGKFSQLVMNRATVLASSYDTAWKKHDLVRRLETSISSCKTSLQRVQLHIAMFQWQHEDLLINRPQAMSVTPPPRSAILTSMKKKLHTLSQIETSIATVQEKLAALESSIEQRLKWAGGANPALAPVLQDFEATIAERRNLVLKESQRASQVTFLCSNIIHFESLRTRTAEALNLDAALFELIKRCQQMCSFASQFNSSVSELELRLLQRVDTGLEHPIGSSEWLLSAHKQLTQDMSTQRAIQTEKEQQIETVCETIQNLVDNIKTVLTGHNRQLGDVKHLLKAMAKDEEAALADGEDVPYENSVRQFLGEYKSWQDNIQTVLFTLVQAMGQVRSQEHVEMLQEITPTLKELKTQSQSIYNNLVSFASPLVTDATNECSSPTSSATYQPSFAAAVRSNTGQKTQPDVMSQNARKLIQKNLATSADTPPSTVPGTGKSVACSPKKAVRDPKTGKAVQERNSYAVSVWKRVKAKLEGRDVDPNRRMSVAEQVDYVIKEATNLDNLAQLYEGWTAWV

| Kd [1] [µM] | binding result [2] | Binder |
| --- | --- | --- |
| 0.06 ± 0.005 | – | B1 |
| 0.034 ± 0.002 | – | preformed UPF2 MIF4G-3/UPF3b complex (complex, UPF2, human, Q9HAU5, MIF4G-3 construct, residues 761-1054; UPF3b, RRM domain, residues 42-143; also called UPF2 MIF4G-3 in complex with UPF3b; UPF2/UPF3b) chain 1: EKTVKKKRPPLQEYVRKLLYKDLSKVTTEKVLRQMRKLPWQDQEVKDYVICCMINIWNVKYNSIHCVANLLAGLVLYQEDVGIHVVDGVLEDIRLGMEVNQPKFNQRRISSAKFLGELYNYRMVESAVIFRTLYSFTSFGVNPDGSPSSLDPPEHLFRIRLVCTILDTCGQYFDRGSSKRKLDCFLVYFQRYVWWKKSLEVWTKDHPFPIDIDYMISDTLELLRPKIKLCNSLEESIRQVQDLEREFLIKLGLVNDKDSKDSMTEGENLEEDEEEEEGGAETEEQSGNESEVNE chain 2: RNKEKKEALSKVVIRRLPPTLTKEQLQEHLQPMPEHDYFEFFSNDTSLYPHMYARAYINFKNQEDIILFRDRFDGYVFLDNKGQEYPAIVEFAPFQKAAKKK |
| 0.037 ± 0.005 | – | UPF2 (121–1227), all three MIF4G domains and the UPF1 binding domain (domain or fragment, human, UniProt Q9HAU5 121-1227, looked up, UPF2, human, Q9HAU5, residues 121-1227; the host of this construct is told only in the Supplementary Material) MKEKEESIQLHQEAWERHHLRKELRSKNQNAPDSRPEENFFSRLDSSLKKNTAFVKKLKTITEQQRDSLSHDFNGLNLSKYIAEAVASIVEAKLKISDVNCAVHLCSLFHQRYADFAPSLLQVWKKHFEARKEEKTPNITKLRTDLRFIAELTIVGIFTDKEGLSLIYEQLKNIINADRESHTHVSVVISFCRHCGDDIAGLVPRKVKSAAEKFNLSFPPSEIISPEKQQPFQNLLKEYFTSLTKHLKRDHRELQNTERQNRRILHSKGELSEDRHKQYEEFAMSYQKLLANSQSLADLLDENMPDLPQDKPTPEEHGPGIDIFTPGKPGEYDLEGGIWEDEDARNFYENLIDLKAFVPAILFKDNEKSCQNKESNKDDTKEAKESKENKEVSSPDDLELELENLEINDDTLELEGGDEAEDLTKKLLDEQEQEDEEASTGSHLKLIVDAFLQQLPNCVNRDLIDKAAMDFCMNMNTKANRKKLVRALFIVPRQRLDLLPFYARLVATLHPCMSDVAEDLCSMLRGDFRFHVRKKDQINIETKNKTVRFIGELTKFKMFTKNDTLHCLKMLLSDFSHHHIEMACTLLETCGRFLFRSPESHLRTSVLLEQMMRKKQAMHLDARYVTMVENAYYYCNPPPAEKTVKKKRPPLQEYVRKLLYKDLSKVTTEKVLRQMRKLPWQDQEVKDYVICCMINIWNVKYNSIHCVANLLAGLVLYQEDVGIHVVDGVLEDIRLGMEVNQPKFNQRRISSAKFLGELYNYRMVESAVIFRTLYSFTSFGVNPDGSPSSLDPPEHLFRIRLVCTILDTCGQYFDRGSSKRKLDCFLVYFQRYVWWKKSLEVWTKDHPFPIDIDYMISDTLELLRPKIKLCNSLEESIRQVQDLEREFLIKLGLVNDKDSKDSMTEGENLEEDEEEEEGGAETEEQSGNESEVNEPEEEEGSDNDDDEGEEEEEENTDYLTDSNKENETDEENTEVMIKGGGLKHVPCVEDEDFIQALDKMMLENLQQRSGESVKVHQLDVAIPLHLKSQLRKGPPLGGGEGEAESADTMPFVMLTRKGNKQQFKILNVPMSSQLAANHWNQQQAEQEERMRMKKLTLDINERQEQED |
| – | binds | UPF3b RRM domain (residues 42–143) (domain or fragment, UniProt Q9BZI7 42-143, looked up, UPF3b, RRM domain, residues 42-143; also called UPF3b RNP domain) RNKEKKEALSKVVIRRLPPTLTKEQLQEHLQPMPEHDYFEFFSNDTSLYPHMYARAYINFKNQEDIILFRDRFDGYVFLDNKGQEYPAIVEFAPFQKAAKKK |
